Experiments:
Experiment in all cases: SPR
[1] = target: MBP-P66M-Del202-208 fusion protein (Borrelia burgdorferi) (UniProt H7C7N8)
[2] = target: MBP-P66M-D205A,D207A fusion protein (Borrelia burgdorferi) (UniProt H7C7N8)
[3] = target: MBP-P66M fusion protein (wild-type middle portion of Borrelia burgdorferi P66, a.a. 170-404) (Borrelia burgdorferi) (UniProt H7C7N8)

Substance | Kd [1] [µM] | Kd [2] [µM] | kon [2] [M⁻¹ s⁻¹] | kon [3] [M⁻¹ s⁻¹]
purified recombinant human integrin αvβ3 (carrier free) (from UniProt P06756 31-1048; P05106 27-718) (receptor) | 178 | 29.3 | 710 | 321000
purified recombinant mouse integrin αvβ3 (carrier free) (from UniProt P43406 31-1044; O54890 26-717) (receptor) | 264 | 20.3 | 1450 | 112000
